Results taken from the DeepSol protein solubility set.

Assay: soluble on expression in E. coli; label from the status in PepcDB or PDB records

| Sequence | soluble on expression in E. coli |
| --- | --- |
| MSLDLEFHGVMRFYFQDKAAGNFATKCIRVSSTATTQDVIETLAEKFRPDMRMLSSPKYSLYEVHVSGERRLDIDEKPLVVQLNWNKDDREGRFVLKNENDAIPPKAQSNGPEKQEKEGVIQNFKRTLSKKEKKEKKKREKEALRQASDKDDRPFQGEDVENSRLAAEVYKDMPETSFTRTISNPEVVMKRRRQQKLEKRMQEFRSSDGRPDSGGTLRIYADSLKPNIPYKTILLSTTDPADFAVAEALEKYGLEKENPKDYCIARVMLPPGAQHSDEKGAKEIILDDDECPLQIFREWPSDKGILVFQLKRRPPDHIPKKTKKHLEGKTPKGKERADGSGYGSTLPPEKLPYLVELSPGRRNHFAYYNYHTYEDGSDSRDKPKLYRLQLSVTEVGTEKLDDNSIQLFGPGIQPHHCDLTNMDGVVTVTPRSMDAETYVEGQRISETTMLQSGMKVQFGASHVFKFVDPSQDHALAKRSVDGGLMVKGPRHKPGIVQETTFDLGGDIHSGTALPTSKSTTRLDSDRVSSASSTAERGMVKPMIRVEQQPDYRRQESRTQDASGPELILPASIEFRESSEDSFLSAIINYTNSSTVHFKLSPTYVLYMACRYVLSNQYRPDISPTERTHKVIAVVNKMVSMMEGVIQKQKNIAGALAFWMANASELLNFIKQDRDLSRITLDAQDVLAHLVQMAFKYLVHCLQSELNNYMPAFLDDPEENSLQRPKIDDVLHTLTGAMSLLRRCRVNAALTIQLFSQLFHFINMWLFNRLVTDPDSGLCSHYWGAIIRQQLGHIEAWAEKQGLELAADCHLSRIVQATTLLTMDKYAPDDIPNINSTCFKLNSLQLQALLQNYHCAPDEPFIPTDLIENVVTVAENTADELARSDGREVQLEEDPDLQLPFLLPEDGYSCDVVRNIPNGLQEFLDPLCQRGFCRLIPHTRSPGTWTIYFEGADYESHLLREGHHHHHH | soluble |
| MAEERGRPQYRPNCNGLSSYYRERFGSHSPEVYLNLRISGFDDRLEREQIKQYLTQELKKYAPFEIKVVKNPEEDERLAYVNFERNDCARKVRYTLMDRLKSVLGKRVQCDPAGILRDQEGKYIPDRFNRAQHGADSKREGGSGSGNRGRPTKEPSTWRLKQDDDEATRTLFVGNMPSDVKEREIRHVFEEHGKVEEVDIKTPINTDAAYAFVMFQTVDQAIQAKAEEQDRPIRAGGSRMKIGYGKSQVSRRLFVGGLGSWCDKEILQKAFGEFGFVENIDYDHGQPYAYVVYENTHTSQEACRSLRGACISKGNHPIMVDYAKDLTAQPEKQQFMRKRRASKSPVGASAVRTPPGSPKDVVRNFAELEEAYAATWSGKMALKKTDYPVKFYRVYGAERLPVKLLRDEDDVPLRLLITQRLSLSSQNLLFDKLASCSSKELSLGVITGKKELSDLQPLVNYFTNKEAAGVVTVPGGILYIFPFCEFALKLLAEFTPQVNVFNENCPFLLGALAVRAPGTP | not soluble |
| MKKFCLSYSSGKDCLLAMDRLVQAGNQPVALVTTLSDEINRSWFHGIPISVLEAAAEALDLPLVISHNNETNYTEKVVEALQETKKLGAETVCFGDIDIEQNGAWDRQVALSAGLEPQLPLWQENREALVKEFLAKGYTAIIKTVSKEAGIPIKFLGEPLNETFITYLKEHQLDICGENGEYHTLVIDGPLFKKRLNYYTSGIYESPYAYSLIIDA | not soluble |
| MKDCSNGCSAECTGEGGSKEVVGTFKAKDLIVTPATILKEKPDPNNLVFGTVFTDHMLTVEWSSEFGWEKPHIKPLQNLSLHPGSSALHYAVELFEGLKAFRGVDNKIRLFQPNLNMDRMYRSAVRATLPVFDKEELLECIQQLVKLDQEWVPYSTSASLYIRPTFIGTEPSLGVKKPTKALLFVLLSPVGPYFSSGTFNPVSLWANPKYVRAWKGGTGDCKMGGNYGSSLFAQCEAVDNGCQQVLWLYGEDHQITEVGTMNLFLYWINEDGEEELATPPLDGIILPGVTRRCILDLAHQWGEFKVSERYLTMDDLTTALEGNRVREMFGSGTACVVCPVSDILYKGETIHIPTMENGPKLASRILSKLTDIQYGREERDWTIVLS | soluble |
| MGSDKIHHHHHHMETDRLIIMDKLRAMRMFVRVVDAGSFSRVANELNVTTSMISKEIGRLEEDLGVRLLHRSTRGQQLTSIGEGYLKRCRELLVQVDDADAYVQHMQENPRGKLRINAPMALGITDLSQLFSAYMKQYPDVELDIQLGDESLDLIEHGFDLGFRASSQMLDSNYVGKPLVSFTYKVCASASYLESHPPIREVEDLAAHNCFVYSYFKSGNFWPLAQGITVAGSLKVNSTLFMKQVIEDGLGIGFLPSFVAREGIEQGKLVEVLPEVGRPDLTLYALYPNRLFTPPKLLSCIEFLQSWFLSRNLDEGWLQ | not soluble |
| MERRSTDLLVLGAGVAGVYAALAAEERGARVLLVSKDPLPAGSTPWAQGGVAFPVGEEDLEAHLRDTLVAGRGLVEEGVARSILEEAPRHLERLRAFGLPFHPEPTREGGHSRARVFHLGGDRSGLLLLEGLLKRLSTPVVPAQALSLLVSGNRVAGALLWGPGGLWEVRAGAVLLATGGFGRLFPVTTNPHGATGDGMALAWRAGAVLRDLEFVQFHPTALPNGALVSEACRGEGALLLNAHGERFMPRYDPLAELAPRDVVARAVFRERERTGGVYLDLRPIPHLEERFPTVVAQARALGLDPLRAPLPVAPAAHYAMGGVRTDAFGHTGIPGLFAAGEVASTGFHGANRLASNSLLEGLVVGWRAALRALEDLAFPPRATPLPALAAPPEAVASLREEAGEALGVVRRKETLLAFLRRAEAVPLEEVEQASRDRLEAGSLLLLMRLLARAALAREESRGAHFREDFPLEDRPRHSLFQGWRLGFLPVGVE | soluble |
| SRQWSQTLCEMSESEDDDIPQLSSHTLAALQEFYAEQKQSVNPRGDDKYNVGVIEENWQLSQFWYSQDTALRLAREAIDAAGEGGRIACVSAPSVYQKLRELCREDSSVYIFEYDRRFAIYGDEFIFYDYNHPLELPERIAAHSFDLVVADPPYLSEECLRKTSETIQFLTRGKILLCTGAIMEEQAAQLLGVKMCKFIPEHSRNLANEFRCYTNYDSGLDCEA | soluble |
| MALMTMVQALNRALDEEMAKDPRVVVLGEDVGKRGGVFLVTEGLLQKYGPDRVMDTPLSEAAIVGAALGMAAHGLRPVAEIQFADYIFPGFDQLVSQVAKLRYRSGGQFTAPLVVRMPSGGGVRGGHHHSQSPEAHFVHTAGLKVVAVSTPYDAKGLLKAAIRDEDPVVFLEPKRLYRSVKEEVPEEDYTLPIGKAALRREGKDLTLIGYGTVMPEVLQAAAELAKAGVSAEVLDLRTLMPWDYEAVMNSVAKTGRVVLVSDAPRHASFVSEVAATIAEDLLDMLLAPPIRVTGFDTPYPYAQDKLYLPTVTRILNAAKRALDY | soluble |
| MGSDKIHHHHHHMTPTMSNIATLDDVRYQEHILQGVSRTFALTIPQLPPALREVVGNAYLLCRIVDTVEDDSALTLEQTRELAEMFIEVVSGTVEAETFARALYPLLSEHTIPAEHDLIKHTPSVIRMTHSFNPVQRQALERCIRIMGQGMAAYQESESLSGLENLAEMDRYCYHVAGVVGEMLTELFCDYSPEINQHKPALMQLSVSFGQGLQMTNILKDIWEDRKRGACWLPRDIFLQEGFDLNDLQPGCPERGFHAGLGTLIGIAKTHLQNALAYTCLIPSHEAGVRRFCLWAIGMAVLTLNKINHKRDFITGREVKISRRSVRATVLITSLLASQDWALKKIFAISSRNLPEVQIARS | not soluble |
| MGSDKIHHHHHHMSKLNMKEWINEIIQKKEVVAMPIMTHPGIEMIGKTVRDAVTDGQVHYNAIKALSEKYPTAAATVIMDLTVEAEAFGAEIVFPENEVPSVVGRLLNDEEAIDKLEIPALNKGRIPQYLKANMLAAKTITDRPVFAGCIGPYSLAGRLYDMSEIMMLIYINPEAANSLLKKCSDFILRYCMALKATGVNGVVMAEPAAGLLSDEDCTQYSSVFIKEIVEKVQDDHFTVILHNCGNTGHCTKAMVATGAAAYHFGNKIDMVEALKEVPADALAMGNLDPVSLFKAATPEVMKKATLDLLEATRSYPNFVLSSGCDTPPHTPSENIDAFFAALNEFNNA | not soluble |
| MRNTKIRAVQYGCGKMSKVILNYLVDHGVEIVGAIDKNPAVVGQDIGDFAGFGHKTGIIISDKADQVFDNCDADIAIVTIFSYMPEMYEFYEMAIKHGVNVISTCEEAIYPWTTSPSETNRLDKLAKENHVTIMGSGMQDIYWINMPCLAMAGMNKIKKVRGVVSYNVEDYGLALAEAHGAGYDLERFERDIASAESLPSYMWNAAEAICSKMNWTIQSINQKSVPYILDEDVYSETLGRTIPAGQVTGMSAVTKVQTHQGIDLEVECIGKVYRQDDGDMCDWEITGEPDLIFSVNKPDTVALTCGTIVNRIPTVLDAPAGYITSEKARLITYPSYPLHTYVEK | not soluble |
| MPRLFLTSDLDSFPVTPQGCSVTLACGVRLQFPAGATATPITIRYRLLLPEPGLVPLGPHDALLSHVLELQPHGVAFQQDVGLWLLFTPPQARRCREVVVRTRNDNSWGDLETYLEEEAPQRLWAHCQVPHFSWFLVVSRPVSNACLVPPEGTLLCSSGHPGVKVIFPPGATEEPRRVSMQVVRMAGRELQALLGEPEAAVSPLLCLSQSGPPSFLQPVTVQLPLPSGITGLSLDRSRLHLLYWAPPAATWDDITAQVVLELTHLYARFQVTHFSWYWLWYTTKNCVGGLARKAWERLRLHRVNLIALQRRRDPEQVLLQCLPRNKVDATLRRLLERYRGPEPSDTVEMFEGEEFFAAFERGIDVDADRPDCVEGRICFVFYSHLKNVKEVYVTTTLDREAQAVRGQVSFYRGAVPVRVPEEAEAARQRKGADALWMATLPIKLPRLRGSEGPRRGAGLSLAPLNLGDAETGFLTQSNLLSVAGRLGLDWPAVALHLGVSYREVQRIRHEFRDDLDEQIRHMLFSWAERQAGQPGAVGLLVQALEQSDRQDVAEEVRAVLELGRRKYQDSIRRMGLAPKDPALPGSSAPQPPEPAQA | soluble |
| MTRFLEKRHKKKKATNKERILSYKPIHAIEQENSFRSSRCSNQTVEVSAVEDSRSALVGFFESNEPSESVTLKGKRERQVRFADKTNTVGLLKESLEEKLLASKTLISQLKEENCRLKERLNEVKDQLELKEKIALVQQENNDLEAEVLEWKAKFYESESEKERILASRSRPKDGYEIVQESLAQQPGTTSFYDYKFRQLVHKLTRMNAIHSKHNDKEYHKCDIVNESKDRSITFELFIDEEQEEIEYVPVQLNGVSQKLPSYLQDNISFDVQNAPIFFTKIMHSLFSK | soluble |
| SIVADSECRAELKDYLRFAPGGVGDSGPGEEQRESRARRGPRGPSAFIPVEEVLREGAESLEQHLGLEALMSSGRVDNLAVVMGLHPDYFTSFWRLHYLLLHTDGPLASSWRHYIAIMAAARHQCSYLVGSHMAEFLQTGGDPEWLLGLHRAPEKLRKLSEINKLLAHRPWLITKEHIQALLKTGEHTWSLAELIQALVLLTHCHSLSSFVFGCGILPEGDADGSPAPQAPTPPSEQSSPPSRDPLNNSGGFESARDVEALMERMQQLQESLLRDEGTSQEEMESRFELEKSESLLVTPSADILEPSPHPDMLCFVEDPTFGYEDFTRRGAQAPPTFRAQDYTWEDHGYSLIQRLYPEGGQLLDEKFQAAYSLTYNTIAMHSGVDTSVLRRAIWNYIHCVFGIRYDDYDYGEVNQLLERNLKVYIKTVACYPEKTTRRMYNLFWRHFRHSEKVHVNLLLLEARMQAALLYALRAITRYMT | not soluble |
| MKVRAIFLNFSVQLTPPSRLVILRNQSVFFSALLLNCPPLLPLPTEASPCYAVSESQPYARKQSCIITAARSAPSVDHIQVVLCRPHNSLLVCPSSHARSSTAVMATEDELRELLPKMRFNKEFKKKQKYQYKKRVEAREKEREIVTGKRRPASEQIQSASDGAKTKTTAAKKSGGAGRAGTKRKPKTRVPKLKVANVETGKETLTKKKARELVQENRKKKACAKKEPKLTAKSTRAGAATAAVVSSETLEGKQSKARVTKDELPATAAQAASSVEPTQTLTQAERDRELLARAIRGDDLLGSDAAAGVADDAAFIRQDPSLYPDHAFLDDYAEKKHAEAVSADELLQNAHHFFKKLSKQERALNKVAKEHINHLRAVNRRGGDKQGFRYVVPKNVKQVVRELLSAQKARDGDEDPETLVDTEQLVSTFGGDGVAETSEKPVRRSRRRRLRTYSDFYQFQVSRRWTRNAENFLKRSRSNKLLFEAKKHQRTIKHF | not soluble |
